Experimental data as given in patent US6693079.
Positions of bridges follow the written chain, without caps; N, C: chain ends. No end group written: not given here.

B1: bp1-10 (peptide)
peptide: CRKGPLQWLCELYF
notes: Peptide from g8 bp1-01 secondary libraries
B2: bp1028 (peptide)
peptide: CRAGPLQWLCERFF
notes: as for B1
B3: bp1-15 (peptide)
peptide: CAAGPLQWLCEKYF
notes: as for B1
B4: bp1-11 (peptide)
peptide: CRKGPLQWLCEKYF
notes: as for B1
B5: bp68 (peptide)
peptide: CRAGPLQWLCEKFF
notes: as for B1
B6: bp1029 (peptide)
peptide: CREGPLQWLCERFF
notes: as for B1
B7: bp1027 (peptide)
peptide: CKAGPLLWLCERFF
notes: as for B1
B8: bp1030 (peptide)
peptide: CKEGPLLWLCERFF
notes: as for B1
B9: bp1-12 (peptide)
peptide: CKEGPLQWLCEKYF
notes: as for B1
B10: bp1-13 (peptide)
peptide: CKEGPLLWLCEKYF
notes: as for B1
B11: bp1-19 (peptide)
peptide: SEMVCRAGPLQWLCEIYF-NH2
modifications: disulfide 5-14 (inferred)
notes: Peptide from g3 bp1-01 secondary libraries
B12: bp1-21B (peptide)
peptide: CRAGPLQWLCEKYFSTY-NH2
modifications: disulfide 1-10 (inferred)
notes: as for B11
B13: bp1-21A (peptide)
peptide: SEVGCRAGPLQWLCEKYFSTY-NH2
modifications: disulfide 5-14 (inferred)
notes: as for B11
B14: bp1-20 (peptide)
peptide: EARVCRAGPLQWLCEKYF-NH2
modifications: disulfide 5-14 (inferred)
notes: as for B11
B15: bp1-18 (peptide)
peptide: CRAGPLQWLCEKAA
notes: C-terminal variant of bp1-01
B16: bp3-27 (peptide)
peptide: EVCWPVAEWYLCN
notes: bp3-01-ox variant
B17: 4d3.3 (peptide) (peptide)
peptide: ASEEVCWPVAEWYLCNMWGR
B18: bp3-30 (peptide)
peptide: ASEEVCWPVAEWYLCN
notes: bp3-01-ox variant
B19: bp3-41 (peptide)
peptide: GPETCWPVAEWYLCN
notes: bp3-01-ox variant
B20: bp3-25 (SEQ ID NO:106) (peptide)
peptide: CWPVAEWYLCN
B21: bp3-28 (peptide)
peptide: EEVCWPVAEWYLCN
notes: bp3-01-ox variant

These binders were tested against T1, recombinant human IGFBP-1 (human, UniProt P08833 26-259) (assay: ELISA plate assay or BIAcore competition, IGF-I inhibition).
T1 construct: Plate-coated, biotinylated or coupled to a dextran chip, depending on the assay; also called rhIGFBP-1; biotinylated IGFBP-1
T1 sequence (looked up): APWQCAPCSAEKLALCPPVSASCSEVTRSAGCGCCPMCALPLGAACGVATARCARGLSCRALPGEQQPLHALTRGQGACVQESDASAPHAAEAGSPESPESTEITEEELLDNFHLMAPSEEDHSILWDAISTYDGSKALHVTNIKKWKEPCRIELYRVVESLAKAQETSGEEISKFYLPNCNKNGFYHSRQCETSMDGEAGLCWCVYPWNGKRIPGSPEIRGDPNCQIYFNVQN

Binding result, binds:
B1, B2, B3, B4, B5, B6, B7, B8, B9, B10

What follows are binders tested against T1, recombinant human IGFBP-1 (assay: BIAcore competition assay or ELISA plate assay).

Binding result, binds:
B11, B12, B13, B14

These binders were tested against T1, recombinant human IGFBP-1 (assay: ELISA competition, C-terminal bp1-01 variants).

Binding result, binds:
B15

These binders were tested against T2, recombinant human IGFBP-3 (human, UniProt P17936 28-291) (assay: BIAcore competition assay).
T2 construct: also called rhIGFBP-3; biotinylated IGFBP-3
T2 sequence (P17936 28-291 limits assumed): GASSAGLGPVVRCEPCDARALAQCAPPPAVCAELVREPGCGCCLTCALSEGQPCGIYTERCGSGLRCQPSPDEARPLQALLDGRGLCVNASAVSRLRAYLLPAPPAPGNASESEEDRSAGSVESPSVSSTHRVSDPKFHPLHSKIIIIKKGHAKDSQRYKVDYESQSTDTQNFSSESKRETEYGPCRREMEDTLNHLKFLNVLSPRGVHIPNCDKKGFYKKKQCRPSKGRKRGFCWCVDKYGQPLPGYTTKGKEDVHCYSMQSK

Binding result, binds:
B16, B17, B18, B19, B20, B21
